Experimental data reported in IntAct's records for PubMed 21212461.

B1: NAD-dependent protein deacetylase sirtuin-3, mitochondrial (Homo sapiens), Q9NTG7 (parent)
chain: MAFWGWRAAAALRLWGRVVERVEAGGGVGPFQACGCRLVLGGRDDVSAGLRGSHGARGEPLDPARPLQRPPRPEVPRAFRRQPRAAAPSFFFSSIKGGRRSISFSVGASSVVGSGGSSDKGKLSLQDVAELIRARACQRVVVMVGAGISTPSGIPDFRSPGSGLYSNLQQYDLPYPEAIFELPFFFHNPKPFFTLAKELYPGNYKPNVTHYFLRLLHDKGLLLRLYTQNIDGLERVSGIPASKLVEAHGTFASATCTVCQRPFPGEDIRADVMADRVPRCPVCTGVVKPDIVFFGEPLPQRFLLHVVDFPMADLLLILGTSLEVEPFASLTEAVRSSVPRLLINRDLVGPLAWHPRSRDVAQLGDVVHGVESLVELLGWTEEMRDLVQRETGKLDGPDK

Variants of: B1
Conditions: with ppif_mouse Ppif

Q: Which “effect of a mutation on the interaction” value does the source give for H248Y here?
A: disrupting interaction
